These results are taken from patent publication US20150140013A1 (GENERAL HOSPITAL, published 2015).

The assay addresses T1, RAPTOR (UniProt Q8N122 1-1335).
T1 construct: Endogenous protein in lysates of human cancer cell lines
Kind of assay: co-immunoprecipitation with anti-FAK from whole-cell lysates of HCT116 and MCF7 cells in mitosis, immunoblot with anti-RAPTOR. As for the experimental part: The immunoprecipitates were washed and resolved by SDS-PAGE. For western blots: primary antibody: RICTOR, mTOR (Cell Signaling), Raptor, FAK, β1-integrin, TTC3 (AbCam).
Standard protocols were used for SDS-PAGE electrophoresis and the following primary antibodies: α-RICTOR, α-mTOR, Phospho-AKT-Ser473 (D9E; Cell Signaling Technology) and α-RAPTOR, α-FAK, α-β1-integrin, α-TTC3, Pan-AKT, and GAPDH (Abcam). For immunoprecipitation studies, cells were synchronized with 200 ng/mL of nocodazole for 12 hours and then released for 2 hours. Cells were rinsed with PBS, fixed with 0.37% formalde-hyde, and quenched with 0.25 mol/L glycine. Cell lysates were prepared in lysis buffer [1% Triton X-100, 150 mmol/L NaCl, 3 mmol/L MgCl, 40 mmol/L HEPES (pH 7.5), 50 mmol/L NaF, EDTA-free protease inhibitor and phosphatase inhibitor (Roche)] and centrifuged at 14,000×g for 10 minutes. Supernatant (250 μg) was incubated with the indicated antibodies [α-FAK (AbCam), α-RICTOR (Santa Cruz Biotechnology)], for 4 hours at 4° C. with rotation and then with 50 μL of a 50% slurry of protein G-sepharose (Roche) for 1 hour Immunoprecipitates were washed and resolved by SDS-PAGE electrophoresis.
To identify an upstream regulator that might activate mTORC2 signaling during asymmetric division, an immunoprecipitation approach was used to identify proteins that physically interact with the mTORC2 complex during mitosis. […]
(In general: In western blotting, separated proteins are transferred to a membrane and probed.)

T1 sequence (Q8N122 whole entry): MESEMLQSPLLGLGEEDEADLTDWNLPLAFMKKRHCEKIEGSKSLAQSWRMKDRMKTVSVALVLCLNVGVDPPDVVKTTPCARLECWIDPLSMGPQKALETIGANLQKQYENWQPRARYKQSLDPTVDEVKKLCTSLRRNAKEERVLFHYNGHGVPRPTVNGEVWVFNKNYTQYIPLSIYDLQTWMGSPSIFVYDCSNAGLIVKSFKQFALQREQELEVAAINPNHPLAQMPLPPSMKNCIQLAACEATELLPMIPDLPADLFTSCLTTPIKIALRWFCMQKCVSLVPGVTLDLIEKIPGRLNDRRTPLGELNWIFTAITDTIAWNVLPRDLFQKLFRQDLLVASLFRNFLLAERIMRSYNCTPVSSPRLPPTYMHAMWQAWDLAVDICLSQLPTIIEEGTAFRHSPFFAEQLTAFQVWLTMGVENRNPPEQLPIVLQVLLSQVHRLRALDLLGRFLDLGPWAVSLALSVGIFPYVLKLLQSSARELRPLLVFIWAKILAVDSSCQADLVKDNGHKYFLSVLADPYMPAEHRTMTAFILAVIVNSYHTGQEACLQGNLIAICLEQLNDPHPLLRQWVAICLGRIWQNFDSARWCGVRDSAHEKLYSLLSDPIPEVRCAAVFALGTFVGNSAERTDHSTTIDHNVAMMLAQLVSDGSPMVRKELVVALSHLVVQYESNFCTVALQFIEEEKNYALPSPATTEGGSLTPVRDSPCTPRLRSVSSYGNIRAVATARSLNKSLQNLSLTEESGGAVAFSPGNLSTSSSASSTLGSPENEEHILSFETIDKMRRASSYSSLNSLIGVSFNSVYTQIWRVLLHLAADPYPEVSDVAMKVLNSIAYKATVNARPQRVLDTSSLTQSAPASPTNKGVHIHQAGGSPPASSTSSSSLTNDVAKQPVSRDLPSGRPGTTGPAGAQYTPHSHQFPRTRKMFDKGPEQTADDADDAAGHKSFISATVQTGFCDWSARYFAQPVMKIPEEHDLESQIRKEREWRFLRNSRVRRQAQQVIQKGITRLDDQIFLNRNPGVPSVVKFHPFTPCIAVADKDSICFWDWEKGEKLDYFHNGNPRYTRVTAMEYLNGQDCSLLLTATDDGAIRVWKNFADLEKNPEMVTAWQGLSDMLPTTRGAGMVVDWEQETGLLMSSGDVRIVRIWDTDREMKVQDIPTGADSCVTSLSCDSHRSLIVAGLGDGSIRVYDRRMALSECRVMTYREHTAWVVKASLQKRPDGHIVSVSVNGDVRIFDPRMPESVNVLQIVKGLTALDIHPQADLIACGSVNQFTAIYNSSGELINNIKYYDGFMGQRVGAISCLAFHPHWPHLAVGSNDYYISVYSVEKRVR

B1: focal adhesion kinase (FAK) (enzyme, human, UniProt Q05397 2-1052, looked up)
chain: AAAYLDPNLNHTPNSSTKTHLGTGMERSPGAMERVLKVFHYFESNSEPTTWASIIRHGDATDVRGIIQKIVDSHKVKHVACYGFRLSHLRSEEVHWLHVDMGVSSVREKYELAHPPEEWKYELRIRYLPKGFLNQFTEDKPTLNFFYQQVKSDYMLEIADQVDQEIALKLGCLEIRRSYWEMRGNALEKKSNYEVLEKDVGLKRFFPKSLLDSVKAKTLRKLIQQTFRQFANLNREESILKFFEILSPVYRFDKECFKCALGSSWIISVELAIGPEEGISYLTDKGCNPTHLADFTQVQTIQYSNSEDKDRKGMLQLKIAGAPEPLTVTAPSLTIAENMADLIDGYCRLVNGTSQSFIIRPQKEGERALPSIPKLANSEKQGMRTHAVSVSETDDYAEIIDEEDTYTMPSTRDYEIQRERIELGRCIGEGQFGDVHQGIYMSPENPALAVAIKTCKNCTSDSVREKFLQEALTMRQFDHPHIVKLIGVITENPVWIIMELCTLGELRSFLQVRKYSLDLASLILYAYQLSTALAYLESKRFVHRDIAARNVLVSSNDCVKLGDFGLSRYMEDSTYYKASKGKLPIKWMAPESINFRRFTSASDVWMFGVCMWEILMHGVKPFQGVKNNDVIGRIENGERLPMPPNCPPTLYSLMTKCWAYDPSRRPRFTELKAQLSTILEEEKAQQEERMRMESRRQATVSWDSGGSDEAPPKPSRPGYPSPRSSEGFYPSPQHMVQTNHYQVSGYPGSHGITAMAGSIYPGQASLLDQTDSWNHRPQEIAMWQPNVEDSTVLDLRGIGQVLPTHLMEERLIRQQQEMEEDQRWLEKEERFLKPDVRLSRGSIDREDGSLQGPIGNQHIYQPVGKPDPAAPPKKPPRPGAPGHLGSLASLSSPADSYNEGVKLQPQEISPPPTANLDRSNDKVYENVTGLVKAVIEMSSKIQPAPPEEYVPMVKEVGLALRTLLATVDETIPLLPASTHREIEMAQKLLNSDLGELINKMKLAQQYVMTSLQQEYKKQMLTAAHALAVDAKNLLDVIDQARLKMLGQTRPH
notes: Endogenous protein of the human cancer cell lines HCT116 and MCF7; lysates of formaldehyde-fixed cells were used for immunoprecipitation; also called PTK2
As for B1, the binding result is “no binding”.
